# In paper PMC5864845, “Engineering enhanced cellobiohydrolase activity” (Nature Communications, 2018):
# B1: TrCel7A (Trichoderma reesei) (protein)
# chain: QSACTLQSETHPPLTWQKCSSGGTCTQQTGSVVIDANWRWTHATNSSTNCYDGNTWSSTLCPDNETCAKNCCLDGAAYASTYGVTTSGNSLSIGFVTQSAQKNVGARLYLMASDTTYQEFTLLGNEFSFDVDVSQLPCGLNGALYFVSMDADGGVSKYPTNTAGAKYGTGYCDSQCPRDLKFINGQANVEGWEPSSNNANTGIGGHGSCCSEMDIWEANSISEALTPHPCTTVGQEICEGDGCGGTYSDNRYGGTCDPDGCDWNPYRLGNTSFYGPGSSFTLDTTKKLTVVTQFETSGAINRYYVQNGVTFQQPNAELGSYSGNELNDDYCTAEEAEFGGSSFSDKGGLTQFKKATSGGMVLVMSLWDDYYANMLWLDSTYPTNETSSTPGAVRGSCSTSSGVPAQVESQSPNAKVTFSNIKFGPIGSTGNPSGGNPPGGNRGTTTTRRPATTTGSSPGPTQSHYGQCGGIGYSGPTVCASGTTCQVLNPYYSQCL
# notes: full length wild type (catalytic domain, linker, CBM1), secreted and purified from Trichoderma reesei AST1116 (QM6A, cbh1 deletion) host, pTrEno
# Substrate: [H][C@@]1(O[C@H]2[C@H](O)[C@@H](O)[C@H](Oc3ccc([N+](=O)[O-])cc3)O[C@@H]2CO)O[C@H](CO)[C@H](O)[C@H](O)[C@H]1O
# Test: p-nitrophenol release, A405, Michaelis-Menten fit
# Type: biochemical, Trichoderma reesei
# Conditions: 20 mM acetate pH 5.0, 100 mM NaCl, 40 °C
# Protocol: p-nitrophenol release, A405, Michaelis-Menten fit on […] | Vmax and Km were determined using p-nitrophenyl-β-D-lactopyranoside (pNPL, Sigma) as substrate
protein,measurement,value
B1,Km,2195 ± 880 µM
same,kcat,0.2377 ± 0.0175 s⁻¹
